From article doi:10.1101/2020.05.04.075580
Where two headings read alike, the source gives them in different places.

Assays:
[1] = target: T1, importin alpha2_21-50 peptide (mouse, UniProt P52293); assay: NMR
[2] = target: T1, importin alpha2_21-50 peptide; assay: NMR; remark: listed apart in the source

B1: SOX-POU 15 bp (dsDNA)
DNA 1: GCAGATGCATAACCG
DNA 2: CGGTTATGCATCTGC
Kd [1]: 600 µM | Kd [2]: 0.3 µM
